Source: patent publication US20220073563A1 (ZHEJIANG DOER BIOLOGICS, published 2022)

Columns and labels:
VEGF [1] = target: T1, VEGF (UniProt P15692-4 27-191, limits assumed); assay: BLI (Octet-QK), biotin-labeled VEGF on SA probe; repeat 1
T1 construct: In the BLI assay the VEGF was biotin-labeled (Sulfo-NHS biotin, molar ratio 2:1) and loaded on an SA probe
Source text: (§1) The binding affinity of the fusion protein is detected using BLI(Bio-layer inteferometry, ForteBio). […] Biotin not involved in labeling is removed by dialysis. […] The buffer used in the experiment is PBS (containing 0.1% Tween-20). […] Based on the program settings, the fusion protein is bound, and then dissociated in PBST solution, to obtain the experimental curve. According to the result analysis software of Octet-QK, local full is used to fit the curve of the experimental results, to calculate kon, kdis and Kd.

VEGF [2] = target: T1, VEGF; assay: BLI (Octet-QK), biotin-labeled VEGF on SA probe; repeat 2
Source text: as §1

VEGF [3] = target: T1, VEGF; assay: BLI (Octet-QK), biotin-labeled VEGF on SA probe; repeat 3
Source text: as §1

VEGF [4] = target: T1, VEGF; assay: BLI (Octet-QK), biotin-labeled VEGF on SA probe; average value of 3 repeats
Source text: as §1

VEGF [5] = target: T1, VEGF; assay: VEGF receptor competitive inhibition ELISA: sample in 3-fold dilutions premixed with 1 µg/mL VEGF, added to coated VEGF Receptor 2/KDR, bound VEGF detected with anti-VEGF antibody
Description: Blocking the ELISA plate with 1% BSA/TBS and placing at 37° C. for 2 h. […] The KDR-coated ELISA plate is washed twice and pat-dried. Then, the gradiently diluted mixture samples are successively transferred to the ELISA plate and placed at 37° C. for 1 h, then the plate is washed 5 times. […] The plate is placed at 37° C. for 1 h and washed 5 times. […] The plate is placed at 37° C. for 1 h and washed for 6 times. After the reaction, adding the color developing solution, and developing the color at 37° C. for 15 min. Adding the stop buffer to terminate the color reaction. Reading the OD450 value on the microplate reader.

T1 sequence (P15692 other isoform, or with tags, fused parts or gaps limits assumed): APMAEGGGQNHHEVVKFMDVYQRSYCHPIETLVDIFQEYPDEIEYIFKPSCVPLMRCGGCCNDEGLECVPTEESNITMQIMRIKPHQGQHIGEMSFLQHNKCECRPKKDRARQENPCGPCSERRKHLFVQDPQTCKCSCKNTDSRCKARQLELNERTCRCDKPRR

Kd (VEGF [1]): 0.55 nM
Kd (VEGF [2]): 0.47 nM
Kd (VEGF [3]): 0.59 nM
Kd (VEGF [4]): 0.54 nM
IC50 (VEGF [5]): 0.64 nM
B1: ankyrin repeat protein binding to VEGF (designed binder)
chain: GSDLDKKLLEAARAGQDDEVRILMANGADVNARDSTGWTPLHLAAPWGHPEIVEVLLKNGADVNAADFQGWTPLHLAAAVGHLEIVEVLLKYGADVNAQDKFGKTAFDISIDNGNEDLAEILQKAA
notes: Unfused ARVEGF used as comparator; also called ARVEGF
